From patent publication US20090324606A1 (published 2009)

What was measured:
Experiment in all cases: ELISA, antigen coated at 10 µg/ml
[1] = target: T1, botulinum neurotoxin serotype E (BoNT/E) (UniProt Q00496 2-1251)
T1 sequence: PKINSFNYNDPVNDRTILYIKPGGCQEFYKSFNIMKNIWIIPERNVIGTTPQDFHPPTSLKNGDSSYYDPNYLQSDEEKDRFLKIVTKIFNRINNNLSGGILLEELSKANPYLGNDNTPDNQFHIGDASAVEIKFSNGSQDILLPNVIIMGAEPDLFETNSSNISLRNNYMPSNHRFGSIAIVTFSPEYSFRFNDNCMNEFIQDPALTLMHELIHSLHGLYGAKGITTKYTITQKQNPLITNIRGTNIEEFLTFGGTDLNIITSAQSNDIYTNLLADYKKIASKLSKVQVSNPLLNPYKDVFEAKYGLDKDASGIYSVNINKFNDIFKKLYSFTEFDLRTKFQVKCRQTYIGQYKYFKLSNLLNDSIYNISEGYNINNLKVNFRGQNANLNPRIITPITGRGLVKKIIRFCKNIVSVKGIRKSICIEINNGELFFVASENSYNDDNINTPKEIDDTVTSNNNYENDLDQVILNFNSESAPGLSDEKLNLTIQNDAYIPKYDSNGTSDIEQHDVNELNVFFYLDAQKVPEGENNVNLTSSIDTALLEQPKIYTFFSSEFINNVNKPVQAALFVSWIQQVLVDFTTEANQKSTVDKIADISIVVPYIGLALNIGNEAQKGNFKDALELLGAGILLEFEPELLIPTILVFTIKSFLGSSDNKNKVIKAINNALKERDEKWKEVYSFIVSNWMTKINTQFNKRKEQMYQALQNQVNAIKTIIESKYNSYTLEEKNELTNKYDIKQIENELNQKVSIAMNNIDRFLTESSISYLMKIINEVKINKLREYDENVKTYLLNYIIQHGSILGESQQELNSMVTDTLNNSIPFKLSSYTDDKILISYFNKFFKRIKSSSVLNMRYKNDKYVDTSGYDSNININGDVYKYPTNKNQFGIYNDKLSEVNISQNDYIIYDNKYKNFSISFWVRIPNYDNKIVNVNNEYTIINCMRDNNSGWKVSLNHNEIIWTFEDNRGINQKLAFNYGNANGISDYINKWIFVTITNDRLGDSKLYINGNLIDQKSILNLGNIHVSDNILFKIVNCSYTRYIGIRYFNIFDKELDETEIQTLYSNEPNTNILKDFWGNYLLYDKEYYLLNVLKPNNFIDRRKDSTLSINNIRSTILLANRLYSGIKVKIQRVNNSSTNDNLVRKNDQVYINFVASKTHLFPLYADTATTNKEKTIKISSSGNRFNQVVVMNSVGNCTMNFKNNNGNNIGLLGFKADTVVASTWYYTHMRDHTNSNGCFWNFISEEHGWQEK

[2] = target: BoNT/A HN, recombinant translocation domain of botulinum neurotoxin serotype A (Clostridium botulinum, UniProt P0DPI0 449-870)
Chain of BoNT/A HN, recombinant translocation domain of botulinum neurotoxin serotype A (P0DPI0 449-870 limits assumed): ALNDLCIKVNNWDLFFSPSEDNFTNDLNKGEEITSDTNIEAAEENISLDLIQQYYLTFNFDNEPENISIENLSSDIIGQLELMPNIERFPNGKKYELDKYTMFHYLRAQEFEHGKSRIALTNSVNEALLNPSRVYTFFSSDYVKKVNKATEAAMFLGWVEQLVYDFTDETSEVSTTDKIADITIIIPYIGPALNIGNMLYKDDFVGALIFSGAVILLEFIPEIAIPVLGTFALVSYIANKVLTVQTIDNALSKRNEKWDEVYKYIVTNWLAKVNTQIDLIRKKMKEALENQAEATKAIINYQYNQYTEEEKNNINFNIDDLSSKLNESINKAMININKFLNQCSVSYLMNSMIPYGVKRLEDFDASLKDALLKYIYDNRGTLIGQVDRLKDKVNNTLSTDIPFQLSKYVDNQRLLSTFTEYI

[3] = target: T2, botulinum neurotoxin serotype C (BoNT/C) (UniProt P18640 2-1291)
T2 sequence: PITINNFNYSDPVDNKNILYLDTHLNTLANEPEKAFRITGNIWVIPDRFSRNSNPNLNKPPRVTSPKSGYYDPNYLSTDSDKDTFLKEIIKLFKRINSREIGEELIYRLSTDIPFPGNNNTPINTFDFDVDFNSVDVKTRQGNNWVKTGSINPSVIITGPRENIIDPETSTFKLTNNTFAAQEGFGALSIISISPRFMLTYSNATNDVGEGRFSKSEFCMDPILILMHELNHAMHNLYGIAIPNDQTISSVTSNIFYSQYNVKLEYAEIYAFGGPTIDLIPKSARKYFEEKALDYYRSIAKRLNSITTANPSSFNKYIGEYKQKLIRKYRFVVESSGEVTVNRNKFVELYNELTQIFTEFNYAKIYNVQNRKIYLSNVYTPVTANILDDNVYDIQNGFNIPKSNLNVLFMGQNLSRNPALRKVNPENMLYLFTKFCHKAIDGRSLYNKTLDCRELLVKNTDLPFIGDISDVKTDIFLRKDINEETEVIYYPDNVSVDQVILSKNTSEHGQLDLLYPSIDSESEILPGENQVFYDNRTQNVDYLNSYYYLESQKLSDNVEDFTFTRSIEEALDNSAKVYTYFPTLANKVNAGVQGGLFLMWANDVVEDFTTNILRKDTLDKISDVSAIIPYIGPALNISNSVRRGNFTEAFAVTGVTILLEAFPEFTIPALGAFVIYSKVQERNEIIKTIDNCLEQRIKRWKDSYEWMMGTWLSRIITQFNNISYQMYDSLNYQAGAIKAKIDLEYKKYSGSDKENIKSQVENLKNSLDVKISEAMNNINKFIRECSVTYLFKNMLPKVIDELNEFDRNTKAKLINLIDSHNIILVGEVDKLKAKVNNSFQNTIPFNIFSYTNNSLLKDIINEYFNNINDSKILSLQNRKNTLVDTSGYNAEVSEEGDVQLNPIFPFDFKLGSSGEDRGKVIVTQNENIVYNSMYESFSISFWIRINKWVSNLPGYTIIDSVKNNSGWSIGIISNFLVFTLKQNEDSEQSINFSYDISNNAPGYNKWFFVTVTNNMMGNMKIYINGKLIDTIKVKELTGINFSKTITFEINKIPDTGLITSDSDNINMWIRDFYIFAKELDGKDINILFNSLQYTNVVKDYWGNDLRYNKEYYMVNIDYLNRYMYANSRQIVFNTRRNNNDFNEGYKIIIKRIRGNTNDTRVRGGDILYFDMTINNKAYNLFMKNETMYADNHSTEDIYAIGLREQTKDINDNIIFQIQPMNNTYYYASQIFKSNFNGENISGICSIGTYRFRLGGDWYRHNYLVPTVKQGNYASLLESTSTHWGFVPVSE

[4] = target: T3, botulinum neurotoxin serotype B (BoNT/B) (UniProt P10844 2-1291)
T3 sequence: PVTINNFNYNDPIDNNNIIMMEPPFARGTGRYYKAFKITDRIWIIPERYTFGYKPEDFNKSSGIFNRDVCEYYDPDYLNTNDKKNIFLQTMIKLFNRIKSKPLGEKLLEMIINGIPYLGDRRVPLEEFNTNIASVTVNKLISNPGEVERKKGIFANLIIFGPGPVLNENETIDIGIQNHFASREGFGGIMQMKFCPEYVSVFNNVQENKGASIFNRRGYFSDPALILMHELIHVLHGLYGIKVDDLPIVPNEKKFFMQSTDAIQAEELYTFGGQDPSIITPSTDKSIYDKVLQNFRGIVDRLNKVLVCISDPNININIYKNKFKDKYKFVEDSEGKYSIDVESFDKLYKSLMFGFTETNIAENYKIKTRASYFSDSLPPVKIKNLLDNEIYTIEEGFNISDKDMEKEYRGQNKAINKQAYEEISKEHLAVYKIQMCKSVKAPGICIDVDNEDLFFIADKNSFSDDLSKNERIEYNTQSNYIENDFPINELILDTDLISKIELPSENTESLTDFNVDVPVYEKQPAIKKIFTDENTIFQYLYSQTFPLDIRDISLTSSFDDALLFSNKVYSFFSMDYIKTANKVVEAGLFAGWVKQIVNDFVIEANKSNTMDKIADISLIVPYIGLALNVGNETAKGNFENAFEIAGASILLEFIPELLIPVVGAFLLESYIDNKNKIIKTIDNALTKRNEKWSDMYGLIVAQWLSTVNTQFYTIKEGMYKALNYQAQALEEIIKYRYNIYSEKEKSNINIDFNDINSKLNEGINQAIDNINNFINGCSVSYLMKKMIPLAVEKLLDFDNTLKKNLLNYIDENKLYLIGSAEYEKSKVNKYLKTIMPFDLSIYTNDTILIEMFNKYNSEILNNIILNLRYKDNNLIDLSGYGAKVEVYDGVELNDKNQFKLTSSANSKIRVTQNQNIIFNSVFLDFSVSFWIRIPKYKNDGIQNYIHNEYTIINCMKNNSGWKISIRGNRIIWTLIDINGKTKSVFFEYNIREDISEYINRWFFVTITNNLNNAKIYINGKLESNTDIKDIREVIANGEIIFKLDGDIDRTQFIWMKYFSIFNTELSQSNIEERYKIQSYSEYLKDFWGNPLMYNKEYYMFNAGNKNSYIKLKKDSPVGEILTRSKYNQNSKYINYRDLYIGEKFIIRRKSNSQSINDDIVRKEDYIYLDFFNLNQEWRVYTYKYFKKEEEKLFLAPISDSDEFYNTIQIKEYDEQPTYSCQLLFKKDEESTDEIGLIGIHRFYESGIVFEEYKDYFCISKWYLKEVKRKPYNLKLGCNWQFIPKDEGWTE

Measured: binding result

B1: scFv 3D12 (human, immune library) (scFv, V domains shown)
VH: QVQLVQSGGGVVHPGRSLKLSCAGSGFTFSDYDMHWVRQAPGKGLEWVAVMWFDGTEKYSAESVKGRFTISRDNSKNTLFLQMNSLRADDTAVYYCAREPDWLLWGDRGALDVWGQGTTVTVSS
VL: DIVMTQSPSTLSASVGDRVTITCRASQSISSWLAWYQQKPGKAPKLLMYEASSLESGVPSRFSGSGSGTEFTLTISSLQPDDFAAYYCQHYNTYPYTFGQGTKLEIKR
no binding: all assays above
